Measurements reported in paper PMC6494836, “Mechanism-based tuning of insect 3,4-dihydroxyphenylacetaldehyde synthase for synthetic bioproduction of benzylisoquinoline alkaloids” (Nature Communications, 2019).

What follows are substances tested on N[C@@H](Cc1ccc(O)c(O)c1)C(=O)O (assay: fluorometric H2O2 production assay (peroxidase-coupled)). Settings: O2 co-substrate; PBS; PLP cofactor; aldehyde synthase (H2O2-producing) activity; parentheses are 95% confidence interval.
Assay type: biochemical, Bombyx mori
Description: fluorometric H2O2 production assay (peroxidase-coupled) on B. mori DHPAAS

| Substance | Km | kcat |
| --- | --- | --- |
| B. mori DHPAAS (Bombyx mori) | 41.7 (36.6–47.3) µM | 6.51 (6.27–6.76) min^−1 |
| B. mori DHPAAS (Bombyx mori; F79Y/N192H/Y80F) | 27.6 (17.1–42.8) µM | 0.97 (0.87–1.09) min^−1 |
| B. mori DHPAAS (Bombyx mori; F79Y/Y80F) | 62.3 (49.5–78.5) µM | 4.65 (4.30–5.03) min^−1 |
| B. mori DHPAAS (Bombyx mori; N192H) | 36.5 (32.8–40.5) µM | 1.40 (1.35–1.44) min^−1 |
